Experimental data reported in paper PMC3340011 (Biophysical Chemistry, 2011).
Read-outs that look alike come from different tables or passages of the source. Blank lines part the entries; values can stand above or below the binder they belong to. Where no end group is shown, it is not given here.

Legend:
Experiment in all cases: fluorescence polarisation
[1] = biological target: T1, Full-length mammalian calmodulin, residues 1–148 (rat) (rat, UniProt P0DP29 1-149)
[2] = biological target: T1, Full-length mammalian calmodulin, …; remark: listed apart in the source
[3] = biological target: N-domain fragment of calmodulin, residues 1–80 (rat, UniProt P0DP29 2-81)
[4] = biological target: C-domain fragment of calmodulin, residues 76–148 (rat, UniProt P0DP29 77-149)

Kd [1]: 2500 ± 180 nM
Kd [2]: ≤ 2 nM
Kd [3]: 1100 ± 970 nM
Kd [4]: ≤ 10 nM
B1: Fl-IQ′_(1650): IQ′_(1650) (residues 1650–1675 of Cav1.2 CTT) fluoresceinated at the N-terminus (peptide)
peptide: {5,6‑carboxyfluorescein}-ATFLIQEYFRKFKKRKEQGLVGKPSQ

Kd [1]: 4100 ± 370 nM
Kd [2]: ≤ 2 nM
Kd [3]: ≤ 70 nM
Kd [4]: ≤ 70 nM
B2: Fl-C_(1614): C_(1614) (residues 1614–1635 of Cav1.2 CTT) fluoresceinated at the N-terminus (peptide)
peptide: {5,6‑carboxyfluorescein}-ELRAIIKKIWKRTSMKLLDQVV

Kd [2]: ≤ 2 nM
B3: Fl-A_(1588): A_(1588) (residues 1588–1609 of Cav1.2 CTT) fluoresceinated at the N-terminus (peptide)
peptide: {5,6‑carboxyfluorescein}-FNATLFALVRTALRIKTEGNLE
